The target in this assay is T1, factor XII (FXII/FXIIa) in rat plasma (rat) (UniProt D3ZTE0).
T1 sequence (looked up): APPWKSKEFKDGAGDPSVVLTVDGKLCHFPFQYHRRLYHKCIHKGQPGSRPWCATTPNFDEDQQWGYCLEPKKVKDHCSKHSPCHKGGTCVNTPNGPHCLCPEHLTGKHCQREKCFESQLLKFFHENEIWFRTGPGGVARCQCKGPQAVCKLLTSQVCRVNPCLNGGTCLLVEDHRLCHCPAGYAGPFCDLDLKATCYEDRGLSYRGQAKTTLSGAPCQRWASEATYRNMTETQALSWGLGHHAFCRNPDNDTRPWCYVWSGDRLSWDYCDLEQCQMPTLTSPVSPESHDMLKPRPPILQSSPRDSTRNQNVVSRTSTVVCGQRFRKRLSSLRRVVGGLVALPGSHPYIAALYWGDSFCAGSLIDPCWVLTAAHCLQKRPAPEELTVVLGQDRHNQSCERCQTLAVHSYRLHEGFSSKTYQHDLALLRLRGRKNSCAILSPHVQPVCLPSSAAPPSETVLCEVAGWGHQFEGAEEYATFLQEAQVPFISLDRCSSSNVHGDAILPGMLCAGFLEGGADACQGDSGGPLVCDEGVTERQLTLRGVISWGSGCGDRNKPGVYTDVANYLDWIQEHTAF
Put plainly: cell-based or functional assay.

B1: Berinert P (C1 esterase inhibitor) (protein, human, UniProt P05155 23-500, looked up)
chain: NPNATSSSSQDPESLQDRGEGKVATTVISKMLFVEPILEVSSLPTTNSTTNSATKITANTTDEPTTQPTTEPTTQPTIQPTQPTTQLPTDSPTQPTTGSFCPGPVTLCSDLESHSTEAVLGDALVDFSLKLYHAFSAMKKVETNMAFSPFSIASLLTQVLLGAGENTKTNLESILSYPKDFTCVHQALKGFTTKGVTSVSQIFHSPDLAIRDTFVNASRTLYSSSPRVLSNNSDANLELINTWVAKNTNNKISRLLDSLPSDTRLVLLNAIYLSAKWKTTFDPKKTRMEPFHFKNSVIKVPMMNSKKYPVAHFIDQTLKAKVGQLQLSHNLSLVILVPQNLKHRLEDMEQALSPSVFKAIMEKLEMSKFQPTLLTLPRIKVTTSQDMLSIMEKLEFFDFSYDLNLCGLTEDPDLQVSAMQHQTVLELTETGVEAAAASAISVARTLLVFEVQQPFLFVLWDQQHKFPVFMGRVYDPRA
B1 displayed an FXII activity [% of the norm] in rat plasma spiked with 0.98 U/mL Berinert P (% of the norm) of 215, an FXII activity [% of the norm] in rat plasma spiked with 2.4 U/mL Berinert P (% of the norm) of 94, an FXII activity [% of the norm] in rat plasma spiked with 4.5 U/mL Berinert P (% of the norm) of 85 and an FXII activity [% of the norm] in rat plasma spiked with 9.92 U/mL Berinert P (% of the norm) of 55. Moreover, the FXII activity [% of the norm] in rat plasma spiked with 16.7 U/mL Berinert P (% of the norm) worked out at 25.
